Data: the nanobody polyreactivity screen of Harvey et al. (2022)

assay: yeast display, Sf9 membrane polyspecificity reagent, FACS + sequencing; frameworks hold sequencing errors
In short: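 A synthetic nanobody library was expressed on Saccharomyces cerevisiae BJ5465 by galactose induction for 36–48 hours. The library was stained for 1 hour at 4 °C with 10% biotinylated, detergent-solubilized Sf9 membrane reagent and enriched with streptavidin microbeads before FACS. Low and high (top ~1%) gates were set on anti-HA fluorescence for expression and streptavidin fluorescence for reagent binding, and each polyreactivity label reflects the gate of origin.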

Sequence	polyreactivity (PSR sort gate)
QVQLVESGGGLVQAGGSLRLSCAASGNTFKYYAMGWYRQAPGKERELVAAISYSGGSTYYADSVKGRFTISRDNAKNTVYLLMNSLKPEVTAVYYCAADLDSERYYWGQGTQVTVSS	low polyreactivity
QVQLVESGGGLVQAGGSLRLSCAASGFILDWYAMGWYRQAPGKERELVAAISYSGGSTYYADSVKGRFTISRDNAKNTVYLQMNSLKPEDTAVYYCNADIWYGDMDYWGQGTQVTVSS	high polyreactivity
HEQRVESCGGLVQARCSLRLSCAASGGTFRYNTMGWYRQAPGKERDLVADISSDGRTYYADSVKGRFTISRDNAKTSVYLQMNSLKPEDTAVDYCAVDRFTPDVYEYGYWGQGTQVTVSS	high polyreactivity
QVQLVESGGGLVKAGGSLRLSCAASGSTFGLYVMGWYRQAPGKERELVAAINRIGSRTYYADSVKGRFTISRDNAKNTVYLQMNSLKPEDTAVYYCAADYDYTSPGDDYWGQGTQVTVSS	high polyreactivity
QVQLVESGGGLVQAGGSLRLSCAASGLIFWEYAMGWYRPAPGNERELVASITWGGGGTYYADSVKGRFTISRYNAKNTVNLHKNSLKPEDTAVYYSAVGPYYQSTQIYDYWGQGTQVTVSS	low polyreactivity
QVQQQESGGVLVHAGGSLRLSCAASGTISPLPAMGWYRQAPGKEREFVAGIDTGAISNYADSVKGRFTISRDNAKNTVYLQMNSLKPEDTAVYYCAVFPAAYEYYVRYYTYWGQGTQVTVSS	low polyreactivity
QVQLVESVGGLVQAGGSLRLSCAASGRIFSVYTMGWYRQAPGKERELVAAISSGASTNYADSVKGRFTISRDNAKNTVYLQMNSLKPEDTAVYYCNAQWYLRLGASKTWVDVDYWGQGTQVTVSS	low polyreactivity
QVQLVESGGGLVQAGGSLRLSCAASGFIYHTNAMGWYRPAPGKERELVAAISDSADITHYADSVKGRFTISRDYAKNTVYLQMNSLKPEDTAVYYCNTTGDPPAYDFAFEDWGQGTQVTVSS	low polyreactivity
QVQLVESGGGIVQAGGSLRLSCAASGRTFSPYAKGWYRQAPGKERELVAAITLSGSSTYYADSVKGRFTISRDNAKNTVYLQMNRLKPEDTAVYYCAADYLYSWYRYVTYDYWGQGTQVTVSS	high polyreactivity
QVQLVESGGGLVQAGGSLRLSCAASGRTISKNTMGWYRQAPGKERELVAAISSSGGSTNYADSVKGRFTISRDNAKNTVYLQMNSLKPEETAVYYCAADPWRFRSRPVNYWGQGTQVSVSS	high polyreactivity
QVQLVESGGGLVQAGGSLRLSCAASGFTFNYYAMGWYRQAPGKERELVAAISGRGGSTYYADSVKGRFTISRDNAKNTVYLQMNSLIPEDTAVYYCAADYWYDYYSTEYDYWGQGTQVTVSS	low polyreactivity
QVQLGESGGGLVQAGGSLRLSCAASGSTFNLYAMGWYRQAPGKERELVAAISFSGGSTYYADSVKGRFTISRDNAKNTVYLQMNSLKPEDTAVYYCAAVESSYEAWDTYYYWGQGTQVTVSS	low polyreactivity
QVQLVESGGGLVQAGGSLRLSCAASGSIFRSYAMGWYRQAPGKERELVAAISSSGGRTYYADSVKGRFTISRDNAKNTVYLQMNSLKPEDTAVYYCAAYGGGGYKYDYWGQGTQVTVSS	low polyreactivity
QVQLVESGGGLVQAGGSLRLSCAASGNTFPFNAMGWYRQAPGKERELVAAISRGGSTYYADSVKGRFTISRDNAKNTVYLQMNSLKPEDTAVYYCAVSAGKRRLDYWGQGTQVTVSS	high polyreactivity
QVQLVESGGGLVQAGGSLRLSCAASGFIFRYYAMGWYRQAPGKERELVAAISRIGGSSYYADSVKGRFTISRDNAKNTVYLQMNSPKPEVTAVYYCAVAEGYYPAYLRDYWGQGTQVTVSS	high polyreactivity
QVQLVETGGGLVQAGGSLRLSCAASASIFTANAMGWYRQAPGKERELVAAISRSGGRTYYADSVKGRFTISRDNAKNTVYLQMNSLKPEDTAVYYCAAVYVYPSTSRYDFWGQGTQVTVSS	high polyreactivity

Sequence	polyreactivity (PSR sort gate)
QVQLVESGGGLVQAGGSLRLSFAASGSTFVIYAMGWYRQAPGTERELVAAISGRTGSTYYADSVKGRFTISRDNAKNTVYLQMNSLKPEDTAVYYCAAYKRSGLKYGHWGQGTQVTVSS	high polyreactivity
QVQLVESGGGLVQAGGSLRLSCAASGITFGSKVMGWYRQPPGKEWEFVAVINWSTGSTYYADSVKGRFTISRDNAKNTVYLQMNSLKPEDTAVYYCNTDSGNEWTSYDYWGQGTQVTVSS	low polyreactivity
QVQHVESGGGLVQAGGSLRLSIAASVFTFKGNAMGWYRQGPGKEMELVSTITQSGGSTYYADSVKGRFTISRDNAKNTVYLQMNSLKPEDTAVYFCNADPITLYYYSWYNYWGQGTQVTVSS	low polyreactivity
QVQLVESGGGLVQAGGSLRLSCAASGSFIVQNSMGWYRQAPAKERELVAANTRGGSTYYADSVKGRFTISRDNAKNTVYLQMNSLKPEDTAVYYCAAYWYYYLMDYWGQGTQVTVSS	low polyreactivity
QVQLVESGGGLVQAGGSLRLICAASGRTFAYNAMGWYRQAPGKERELVAAISYRGTTTYYADSVKGRFTISRDNAKNTVYLQMNSLKPEDTAVYYCNKVGTRFSAYSSGFVLSEYYYWGQGTQVTVSS	high polyreactivity
QVQLVESVGGLVQAGGSLRLSCAASGRIFGVYAMGWYRQAPGKERELVAAISEGGGSTNYADSVKGRFTISRDNAKNTVYLQMNSLKPEDTAVYYCAATYRTGVRRYYSWGQGTQVTVSS	low polyreactivity
QVQLVESGGGLVQAGGSLRLSCAASGFTFRYYAMGWYRQAPGKERELVASINWSGGSTYYADSVKGRFTISRDNAKNTVYLQMNSLKPEDTAVYYCAADSIWGHYFARFDYWGQGTQVTVSS	high polyreactivity
QVHLVESGGCLVQAGGSLRLSCAASGRIYRYAMGWYRQAPGKERELVAVITRRGDGTYYADSVKGRFTISRDNAKNTVYLQMNSLKPEDTAVYYCNADQSYKRPWPYDYWGQGTQVTVSS	high polyreactivity
QVQLVESGGGLVQAGGSLRLSCAASGRILWGYAMGWYRQAPGKERELVAAITWSTGTTSYADSVKGRFTISRDNAKNTVYLQMNSLKPEDTAVYYCARRQWRTQLVYGSRRDYWGQGTQVTVSS	low polyreactivity
QVQLVESGGGLVQAGGSLRLSCAASGSTFPINAMGWYRQAPGKERELVACISSGGSTDYADSVKGRFTISRVNAKNTVYLQMNSLKAEHTAVYYWAAVRGPSLVTKYPHDYWGQGTQVTVSS	low polyreactivity
QVQLVESRRGLVPAGGSLRLSCARCGITVPAYAMGWYRQAPGKERELVASISRRGGSTYYADSVKGRFTISRDNAKNTVYLQINSLKPVDTAVYYCNADIKQRSDRYDYWGQGTQVTVSS	high polyreactivity
QVQIVESGGGLVQAGGSLRLSCAASGSTFSVYAMGWYRQAPGKDRELVVAIRSSGGSTYYAHSVKGRFTISRDNAKNTVYLQMNSLKPEDTAVYYCATRIIVGSYRYDYWGQATQVTVSS	low polyreactivity
QVQLVESGGGLVQAGGSLRLTCAASGIIFFKNAMGWYRQAPGKERELVASINRSGGSTYYADSVKGRFTISRDNAKNTGYFQMNSLKPEDTAVFYCNARLTLRSYDYWGLGTQVTVSS	low polyreactivity
QVQLVESGGGLVQAGGSLRLSCDASGSIFRGNAMGCYRQAPGKERELVPDITSGSNTYYADSVKGRFTISRDNAKNTVYLQMNSLKPEDTAVYYCAADGVAYPWWSVYNSFDYWGQGTQVTVSS	low polyreactivity
QVQLVESGGGLVQAGGSLRLSCAASGITFVRYTMGWYRQAPGKERQFVAGITRGGSTCYADSVKGRFTISRDNAKNTVYLQMNSLKPEDTAVYYCAARPRFLRASVEYDYWGQGTQVTVSS	high polyreactivity
QVQLVESGGGLVQAGGSLRLSCAASGRTFTGYAMGWYRQAPGKERELVASISGSGGRTNYADSVKGRFTISRDNAKNTVYLQMNSLKPEDTAVYYCAARYRTWFGYWGQGTQVTVSS	high polyreactivity
